Key:
[1] = tested on: TIEG expression; assay: Real time PCR analysis of muscle samples, TIEG; type: in vivo, human; details: mean post-Tro/mean pre-Tro
Experimental: (§1) The gene expression changes observed in the human muscle samples derived from lean and diabetic individuals or from diabetic individuals post-Troglitazone treatment, were further confirmed by the use of real-time quantitative PCR. A combination of specific PCR primers and a Taqman probe were designed to detect and quantify expression levels for each gene. Relative gene expression levels were determined in this manner in each patient and the mean expression level in either the lean or diabetic patient population was then calculated.

[2] = tested on: connective tissue growth factor (CTGF) mRNA; assay: Gene expression profiling of muscle samples on custom Affymetrix chips, probe set mbxhummus 24330; type: in vivo, human; details: muscle of diabetics, Clamp sample
From the text: (§2) The molecular mechanism by which thiazolidinediones (TZDs) cause an increase in peripheral insulin sensitivity was studied. Genes in muscle or fat whose expression is altered by TZDs may lie on a pathway leading from TZD treatment to increased insulin sensitivity. Modulators of such genes can elicit the same effect as TZD treatment. Moreover, such modulators can lack some of the side effects of TZD. The majority of glucose disposal occurs in muscle. For this reason, gene expression profiling in human muscle from diabetics treated with troglitazone was used to identify genes important for TZD action and therefore treatment of diabetes and insulin resistance. […] The gene expression profile for each individual was determined by hybridization of cRNA to custom synthesized Affymetrix chips. Gene expression profile differences were calculated as follows. […] The raw data was analyzed by a statistical test to remove ‘outliers’. The mean ‘average difference score’ was then calculated from the average difference scores for all individuals in a particular treatment group. Genes were determined to be changed in condition 1 (such as basal diabetics before trogliazone (tro) treatment) versus condition 2 (such as basal diabetics after troglitazone treatment) by calculating the Students t test statistic between the two conditions and selecting those with t less than or equal to 0.05. […]

[3] = tested on: TIEG mRNA; assay: Gene expression profiling of muscle samples on custom Affymetrix chips, probe set mbxhummus23808; type: in vivo, human; details: muscle of diabetics, Basal sample
From the text: as §2

[4] = tested on: CTGF expression; assay: Real time PCR analysis of muscle samples, CTGF; type: in vivo, human; details: mean post-Tro/mean pre-Tro
Experimental: as §1

[5] = tested on: 3T3-L1 adipocytes; assay: Glucose transport analysis in 3T3-L1 adipocytes; type: cell-based, murine
Experimental: (§3) In some instances another analysis called “glucose transport” was used. This involves over-expressing the gene in either differentiated 3T3-L1 adipocytes or differentiated L6 myotubes and then monitoring the ability of insulin to stimulate glucose transport into these two cell types. A recombinant adenovirus encoding the human gene tagged with a FLAG epitope tag was prepared essentially as described in Zhou et al. Proc. Nat. Acad. Sci. USA. 95: 2509-2514. 3T3-L1 adipocytes or L6 myotubes were infected with recombinant adenovims expressing the human gene. A virus expressing an irrelevant protein was used as the control. 24 h post-infection the cells are stimulated with increasing concentrations of insulin and glucose transport into the cells determined by the counting the accumulation of a radiolabelled glucose analog (2-deoxyglucose) essentially as describe in Kotani et al. Mol Cell. Biol. 18 6971-6982 (1998), Fujishiro et al. J. Biol. Chem. 276 19800-19806 (2001), Ross et al. Biochem. Biophys. Res. Commun. 302 354-358 (2003).

[6] = tested on: 3T3-L1 adipocytes; assay: Glut 4 translocation analysis; type: cell-based, murine; details: for Fold Change (Mean hCTGF/Mean LacZ), cells positive for cell surface Glut 4 / Fold Change (Mean hTIEG/Mean LacZ), cells positive for cell surface Glut 4: n = 3; for Glut 4 translocation with insulin (in words) / Basal Glut 4 translocation (in words): over-expression in 3T3-L1 adipocytes; for Glut 4 translocation with insulin (in words): all insulin concentrations tested; for Basal Glut 4 translocation (in words): no insulin
From the text: One analysis called “Glut 4 translocation” involves over-expressing the gene in 3T3-L1 adipocytes and then monitoring the ability of insulin to cause the movement (translocation) of the major insulin-regulated glucose transporter, Glut 4, to the cell surface. The cDNA encoding the human gene was sub-cloned into the mammalian expression vector pcDNA3.1 which provides for a V5 epitope tag. This plasmid encoding the human gene was then introduced into differentiated murine 3T3-L1 adipocytes along with a cloned Glut 4 expression construct using an electroporation procedure essentially as described in Kanzaki et al. J. Biol. Chem 275 7167-7175 (2000). A plasmid expressing LacZ was used as a negative control. After stimulation with increasing concentrations of insulin, cells co-expressing both the human gene and cloned Glut 4 were scored for the presence of Glut 4 at the cell surface using fluorescence microscopy.

[7] = tested on: L6 myotubes; assay: Glucose transport analysis in L6 myotubes; type: cell-based
Experimental: as §3

[8] = 3 months of Troglitazone treatment
[9] = after 3 months of Troglitazone treatment, mean average difference score

## Cc1c(C)c2c(c(C)c1O)CCC(C)(COc1ccc(CC3SC(=O)NC3=O)cc1)O2 (stereo not drawn) [Troglitazone, troglitazone]
[1]
  Expression Fold change, TIEG, Diabetics + Tro/Diabetics − Tro: 0.69
[2]; [8]
  Fold Change diabetic post tro/diabetic pre tro (Connective Tissue Growth Factor): 0.07
[2]; [9]
  Diabetic Post-Trog Mean Expr (Connective Tissue Growth Factor): 29
[3]; [8]
  Fold Change diabetic post-trog/diabetic pre-trog (TIEG): 0.65
[3]; [9]
  Diabetic Post-Trog Mean Expr (TIEG): 2634
[4]
  Expression Fold change, CTGF, Diabetics + Tro/Diabetics − Tro: 0.35

B1: hCTGF: human Connective Tissue Growth Factor (SEQ ID NO:2) over-expressed in cells from pcDNA3.1 plasmid or recombinant adenovirus (protein, listed as Homo sapiens)
chain: MTAASMGPVRVAFVVLLALCSRPAVGQNCSGPCRCPDEPAPRCPAGVSLVLDGCGCCRVCAKQLGELCTERDPCDPHKGLFCDFGSPANRKIGVCTAKDGAPCIFGGTVYRSGESFQSSCKYQCTCLDGAVGCMPLCSMDVRLPSPDCPFPRRVKLPGKCCEEWVCDEPKDQTVVGPALAAYRLEDTFGPDPTMIRANCLVQTTEWSACSKTCGMGISTRVTNDNASCRLEKQSRLCMVRPCEADLEENIKKGKKCIRTPKISKPIKFELSGCTSMKTYRAKFCGVCTDGRCCTPHRTTTLPVEFKCPDGEVMKKNMMFIKTCACHYNCPGDNDIFESLYYRKMYGDMA
modifications: human connective tissue growth factor (CTGF)
[5]; Expt 1, Insulin 0 nM
  FC (hCTGF/Con) glucose transport: 0.7
[5]; Expt 1, Insulin 0.05 nM
  FC (hCTGF/Con) glucose transport: 0.6
[5]; Expt 1, Insulin 0.1 nM
  FC (hCTGF/Con) glucose transport: 0.6
[5]; Expt 1, Insulin 0.3 nM
  FC (hCTGF/Con) glucose transport: 0.7
[5]; Expt 1, Insulin 1 nM
  FC (hCTGF/Con) glucose transport: 0.8
[5]; Expt 1, Insulin 10 nM
  FC (hCTGF/Con) glucose transport: 0.6
[5]; Expt 2, Insulin 0 nM
  FC (hCTGF/Con) glucose transport: 0.6
[5]; Expt 2, Insulin 0.05 nM
  FC (hCTGF/Con) glucose transport: 0.6
[5]; Expt 2, Insulin 0.1 nM
  FC (hCTGF/Con) glucose transport: 0.7
[5]; Expt 2, Insulin 0.3 nM
  FC (hCTGF/Con) glucose transport: 0.8
[5]; Expt 2, Insulin 1 nM
  FC (hCTGF/Con) glucose transport: 0.8
[5]; Expt 2, Insulin 10 nM
  FC (hCTGF/Con) glucose transport: 0.7
[5]; Expt 3, Insulin 0 nM
  FC (hCTGF/Con) glucose transport: 0.8
[5]; Expt 3, Insulin 0.05 nM
  FC (hCTGF/Con) glucose transport: 0.7
[5]; Expt 3, Insulin 0.1 nM
  FC (hCTGF/Con) glucose transport: 0.7
[5]; Expt 3, Insulin 0.3 nM
  FC (hCTGF/Con) glucose transport: 0.8
[5]; Expt 3, Insulin 1 nM
  FC (hCTGF/Con) glucose transport: 0.9
[5]; Expt 3, Insulin 10 nM
  FC (hCTGF/Con) glucose transport: 0.9
[5]; Insulin 0 nM
  Mean FC (hCTGF/Con) +/− SEM (n = 3) glucose transport: 0.70 +/− 0.03
[5]; Insulin 0.05 nM
  Mean FC (hCTGF/Con) +/− SEM (n = 3) glucose transport: 0.63 +/− 0.06
[5]; Insulin 0.1 nM
  Mean FC (hCTGF/Con) +/− SEM (n = 3) glucose transport: 0.67 +/− 0.02
[5]; Insulin 0.3 nM
  Mean FC (hCTGF/Con) +/− SEM (n = 3) glucose transport: 0.76 +/− 0.05
[5]; Insulin 1 nM
  Mean FC (hCTGF/Con) +/− SEM (n = 3) glucose transport: 0.83 +/− 0.02
[5]; Insulin 10 nM
  Mean FC (hCTGF/Con) +/− SEM (n = 3) glucose transport: 0.75 +/− 0.10
[5]; over-expression in 3T3-L1 adipocytes, basal and insulin stimulated
  Glucose transport (in words): inhibited both basal and insulin stimulated glucose transport
[6]; Insulin 0 nM
  Fold Change (Mean hCTGF/Mean LacZ), cells positive for cell surface Glut 4: 0.97
[6]; Insulin 1 nM
  Fold Change (Mean hCTGF/Mean LacZ), cells positive for cell surface Glut 4: 0.35
[6]; Insulin 10 nM
  Fold Change (Mean hCTGF/Mean LacZ), cells positive for cell surface Glut 4: 0.45
[6]
  Glut 4 translocation with insulin (in words): significantly inhibited Glut 4 translocation at all insulin concentrations tested
  Basal Glut 4 translocation (in words): little or no effect on basal Glut 4 translocation
[7]; Expt 1, Insulin 0 nM
  FC (hCTGF/Con) glucose transport: 0.78
[7]; Expt 1, Insulin 10 nM
  FC (hCTGF/Con) glucose transport: 0.67
[7]; Expt 1, Insulin 100 nM
  FC (hCTGF/Con) glucose transport: 0.70
[7]; Expt 2, Insulin 0 nM
  FC (hCTGF/Con) glucose transport: 0.79
[7]; Expt 2, Insulin 10 nM
  FC (hCTGF/Con) glucose transport: 0.92
[7]; Expt 2, Insulin 100 nM
  FC (hCTGF/Con) glucose transport: 1.05
[7]; Expt 3, Insulin 0 nM
  FC (hCTGF/Con) glucose transport: 0.79
[7]; Expt 3, Insulin 10 nM
  FC (hCTGF/Con) glucose transport: 0.77
[7]; Expt 3, Insulin 100 nM
  FC (hCTGF/Con) glucose transport: 0.74
[7]; Insulin 0 nM
  Mean FC (CTGF/Con) +/− SEM (n = 3) glucose transport: 0.79 +/− 0.004
[7]; Insulin 10 nM
  Mean FC (CTGF/Con) +/− SEM (n = 3) glucose transport: 0.79 +/− 0.07
[7]; Insulin 100 nM
  Mean FC (CTGF/Con) +/− SEM (n = 3) glucose transport: 0.83 +/− 0.11
[7]; over-expression in L6 myotubes, basal and insulin stimulated
  Glucose transport (in words): inhibited both basal and insulin stimulated glucose transport

B2: hTIEG: human TIEG (SEQ ID NO:8) over-expressed in 3T3-L1 adipocytes from pcDNA3.1 plasmid (protein, listed as Homo sapiens)
chain: MEERMEMISERPKESMYSWNKTAEKSDFEAVEALMSMSCSWKSDFKKYVENRPVTPVSDLSEEENLLPGTPDFHTIPAFCLTPPYSPSDFEPSQVSNLMAPAPSTVHFKSLSDTAKPHIAAPFKEEEKSPVSAPKLPKAQATSVIRHTADAQLCNHQTCPMKAASILNYQNNSFRRRTHLNVEAARKNIPCAAVSPNRSKCERNTVADVDEKASAALYDFSVPSSETVICRSQPAPVSPQQKSVLVSPPAVSAGGVPPMPVICQMVPLPANNPVVTTVVPSTPPSQPPAVCPPVVFMGTQVPKGAVMFVVPQPVVQSSKPPVVSPNGTRLSPIAPAPGFSPSAAKVTPQIDSSRIRSHICSHPGCGKTYFKSSHLKAHTRTHTGEKPFSCSWKGCERRFARSDELSRHRRTHTGEKKFACPMCDRRFMRSDHLTKHARRHLSAKKLPNWQMEVSKLNDIALPPTPAPTQ
modifications: human transforming growth factor-beta (TGFB) inducible early growth response (TIEG)
[6]; Insulin 0 nM
  Fold Change (Mean hTIEG/Mean LacZ), cells positive for cell surface Glut 4: 1.34
[6]; Insulin 1 nM
  Fold Change (Mean hTIEG/Mean LacZ), cells positive for cell surface Glut 4: 0.20
[6]; Insulin 10 nM
  Fold Change (Mean hTIEG/Mean LacZ), cells positive for cell surface Glut 4: 0.11
[6]
  Glut 4 translocation with insulin (in words): significantly inhibited Glut 4 translocation at all insulin concentrations tested
  Basal Glut 4 translocation (in words): little or no effect on basal Glut 4 translocation
